Experimental data from patent publication US12297265B2, “Antibody and use thereof” (SICHUAN KELUN-BIOTECH BIOPHARMACEUTICAL CO., LTD., priority 2018, dated 2025).

Legend:
[1] = test system: HEK293T-Claudin 18.2 cells; assay: NK cell mediated ADCC on HEK293T-Claudin 18.2 cells (LDH); format: cell-based; details: HEK293T-Claudin 18.2 target cells
Method: (§1) The steps were as follows: HEK293T-Claudin 18.2, L929-Claudin 18.2, KATOIII-Claudin 18.2 and NUGC-4 cells were harvested and centrifuged followed by adjustment of cell density. 1×10^4/well of cells were plated on a plate and incubated overnight. The medium was removed on the next day. NK92MI-CD16a cells (Huabo Biopharm) were centrifuged, resuspended in MEMA medium and adjusted to 1×10^6/mL, then 50 μL/well cells were added to the corresponding wells. […] For HEK293T-Claudin18.2, L929-Claudin18.2 and KATOIII-Claudin18.2 cells, ten antibody concentrations were tested, starting from 40 μg/mL with 5-fold dilution. For NUGC-4 cells, eleven antibody concentrations were tested, starting from 2 mg/mL with 5-fold dilution. 50 μL/well of the diluted antibodies were added to the corresponding wells and the reactions were left to stand in incubator at 37° C., 5% CO2 and incubated for 5.5h. Lysis buffer was then added to the positive control well and incubated for another 0.5h. 50 μL/well of Lactate Dehydrogenase (LDH) detection agent (DOJINDO LABORATORISE, CK12) were added to the wells and the absorbance at 490 nm were taken every 10 min on a plate reader (MD, SpectraMax M2). The results were imported into Graphpad Prism for curve fitting.
The cell used was HEK293T-Claudin 18.2. The ADCC activity of antibody 2C6.9-hz21 on HEK293T-Claudin 18.2 is stronger than that of IMAB362.

[2] = test system: KATOIII-Claudin 18.2 cells; assay: NK cell mediated ADCC on KATOIII-Claudin 18.2 cells (LDH); format: cell-based; details: KATOIII-Claudin 18.2 target cells, NK92MI-CD16a effector cells
Method: as §1

[3] = biological target: T1, human Claudin18.2 (Homo sapiens, UniProt P56856); assay: Cellular ELISA on L929-Claudin 18.2 cells; format: binding; set-up: expressed in transfected cells; host or cells: L929, infected with pLVX-IRES-puro lentivirus, puromycin-selected monoclonal line; cells were formaldehyde-fixed for the cellular ELISA
Method: Human Claudin18.2 is a four transmembrane protein and has a complex structure. Cellular ELISA was thus carried out to maintain the structure of Claudin18.2. The stable cell line L929-Claudin 18.2 constructed in Example 1 were used for detection. Specifically, L929-Claudin 18.2 adherent cells were detached by 2 mM EDTA treatment. The cells were resuspended and adjusted to 2×10^5/mL and 100 μL of the resuspension was plated into 96 well plate and incubated overnight at 37° C. The next day, the media was removed, and the plate was washed with PBS once. 100 μL/well 4% formaldehyde was added to the plate. After 30 min of incubation at room temperature, formaldehyde was removed, followed by washing twice with PBS. Blocking buffer (PBS containing 2% BSA) was then added to the plate at 100 μL/well, and incubated at 37° C. for 2 h. After removal of blocking buffer, 100 μL/well of serially diluted antibodies (starting from 1 μM, with 4-fold dilution, for a total of 11 concentrations) were added to the corresponding wells, which were incubated at 37° C. for 2h afterwards. The plate was washed with 250 μL PBST for 5 times, and was allowed to stand for 2 min each time. 100 μL/well of horseradish peroxidase labeled anti-Human IgG secondary antibody (HRP-anti-Human IgG, Jackson ImmunoResearch, 109-035-003) diluted 1:10000 in PBS (containing 2% BSA) was added to the plate. The plate was incubated at 37° C. for 1 h and washed with 250 μL PB ST 6 times, wherein the plate was allowed to stand for 2 min each time. 100 μL/well of TMB solution (Thermo, 34029) was added. The reactions were incubated at 37° C. for 20 min and stopped with 50 μL 2 mol/L H2504. The absorbance at 450 nm was read on a plate reader (MD, SpectraMax M2) and the results were subjected to curve fitting by Graphpad Prism.

[4] = biological target: T1, human Claudin18.2; assay: Flow cytometry affinity to HEK293T-Claudin 18.2 cells; format: binding; set-up: expressed in transfected cells
Method: The affinity of 2C6.9-hz21 to human claudin 18.2 on cell membrane was detected using HEK293T-Claudin 18.2 cells, as follows. HEK293T-Claudin 18.2 cells were detached and centrifuged, followed by washing for twice with PBS. And then the cells were resuspended in PBS containing 1% BSA and were plated into 96-well tip bottom plate at 300000 cells per well in a volume of 50 μl for 20 wells in total. 2C6.9-hz21 or IMAB362 antibody was then added with 11 concentrations starting from 1000 nM with three-fold dilution. Human IgG was served as negative control. The reactions were mixed well and incubated for 1 h at 4° C. in the dark. Following by three times of washing with PBS, the FITC-labelled anti-human Fc secondary antibody (Biolegend, 409322) was added and incubated for 0.5h in the dark. Detection was performed by flow cytometry (Beckman, Cytoflex) after washing for three times with PBS.

[5] = biological target: T1, human Claudin18.2; assay: Cellular ELISA on NUGC-4 cells; format: binding; set-up: cell lines endogenously expressing human Claudin18.2; host or cells: NUGC-4 human gastric cancer cell line
Method: Human Claudin18.2 is a four transmembrane protein and has a complex structure. Cellular ELISA was thus carried out to maintain the structure of Claudin18.2. The stable cell line L929-Claudin 18.2 constructed in Example 1 were used for detection. Specifically, L929-Claudin 18.2 adherent cells were detached by 2 mM EDTA treatment. The cells were resuspended and adjusted to 2×10^5/mL and 100 μL of the resuspension was plated into 96 well plate and incubated overnight at 37° C. The next day, the media was removed, and the plate was washed with PBS once. 100 μL/well 4% formaldehyde was added to the plate. After 30 min of incubation at room temperature, formaldehyde was removed, followed by washing twice with PBS. […] The absorbance at 450 nm was read on a plate reader (MD, SpectraMax M2) and the results were subjected to curve fitting by Graphpad Prism.
To determine binding affinity of the candidate antibodies to cell lines endogenously expressing human Claudin18.2, FACS analysis was performed to detect human Claudin18.2 expression level on NUGC-4 cells (purchased from Japan JCRB cell bank, catalog number: JCRB0834) which endogenously expresses human Claudin18.2. […] The binding affinity between candidate antibodies and NUGC-4 cells was then determined by Cellular ELISA following the same protocol as above.

[6] = test system: HEK293T-Claudin 18.2 cells; assay: CDC killing of HEK293T-Claudin 18.2 cells (guinea pig serum, CCK8); format: cell-based; details: 20% guinea pig serum, 3 h
Method: The procedure is described as follows: HEK293T-Claudin 18.2 cells were harvested and centrifuged followed by adjustment of cell density. 5×10^4/well of cells were plated on a plate and incubated overnight. […] Starting from 20 μg/mL, 10 concentrations were prepared with two-fold dilution. The original cell culture media for HEK293T-Claudin 18.2 cells was removed, and the antibody dilutions were added to the corresponding wells, 100 μL/well. 10 μl/well lysis buffer was provided as the positive control. The reactions were left to stand in incubator at 37° C., 5% CO2 and incubated for 3 h. Then, CCK8 (Rhinogen, QDY-003-D) was added at 20 μl/well and allowed to react for 2h. Absorbance at 450 nm were taken on a plate reader (MD, SpectraMax M2). The results were subjected to curve fitting by Graphpad Prism.

Max Signal Value (OD450) ([3]; Table 8 experiment): 0.82 OD450 | Max Signal Value (OD450) ([3]; Table 9 experiment): 0.53 OD450 | Max MFI [4]: 156715.7 | OD450 (Max signal value) [5]: Not detected
Substance: IMAB362: Zolbetuximab (IMAB362) developed by Astellas, human-mouse chimeric IgG1 antibody targeting Claudin 18.2; control antibody, sequences from CN 101312989 B [reference compound]
Max. Cytotoxicity ([1]; NK92MI-CD16a effector cells, Table 13): 55% | Max Cytotoxicity ([1]; Table 14 experiment): 20% | Max. Cytotoxicity [2]: 49% | maximal killing rate (CDC) [6]: about 70%
